{"source": "patent US9701739B2", "about": "“Monoclonal antibody having immunosuppressive activity or antigen binding fragment thereof” (Josai University Corporation, priority 2010, dated 2017)", "key": {"[1]": {"system": "histone H1, H2A, H2B, H3 or H4", "assay": "ELISA determination of the affinity for histone H1 and core histone", "type": "binding", "conditions": "5 μg/mL antibody, FIGS. 2 and 3", "procedure": "For an antigen, histone H1, which is an antigen of Reference Example 1 (16G9 mAb), and core histone H2A, H2B, H3 and H4, which are histone H1 antigen analogs, were selected.\nThe Affinities between histone H1 or core histone and SSVmAb were determined by ELISA.\nA 96 well microplate was coated with histone H1, H2A, H2B, H3 or H4. Each histone used was dissolved in 100 mM sodium carbonate buffer (pH 9.3). The plate was washed with PBS-tween 20 (0.05%), and blocked with 3% skim milk and 1% BSA for 1 hour. To each well, 5 μg/mL SSVmAb was added, and incubated for 1 hour. Bound SSVmAb was detected using peroxidase (HRP) conjugated anti mouse IgG1Ab (SIGMA), and incubated for 1 hour. Bound SSVmAb was detected using the ABTS [2,2′-azino-bis(3-ethylbenzothiazoline-sulfonic acid)] substrate solution, and absorbance at 405 nm was measured using Multiskan Ascent (Thermo Fisher Scientific Inc., Waltham, Mass.)."}, "[2]": {"system": "Spleen lymphocytes from a naive DA rat (responsive cells) with mitomycin-C treated LEW rat spleen lymphocytes", "assay": "Mixed lymphocyte reaction (MLR) test, BrdU incorporation", "type": "cell-based", "procedure": "Spleen lymphocytes from a naive DA rat (responsive cells) and spleen lymphocytes from a LEW rat treated with mitomycin-C (Kyowa Hakko Kogyo Co., Ltd.) were used. The responsive cells were adjusted to 5×10^5 cells/mL with 10% FCS—RPMI culture medium, and the stimulated cells were adjusted to 8×10^6 cells/mL with 10% FCS—RPMI culture medium. After plating the responsive cell suspension and the stimulated cell suspension in an amount of 100 μL to a 96 well round-bottom plate (Nunc Brand Products) respectively, the monoclonal antibody 16G9 mAb of Reference Example 1 (0.1, 2, 4, or 6 μg/mL/well) or the monoclonal antibody SSVmAb of Example 1 (4 μg/mL/well) was added at the start of mixed culture, and cultured for 3.5 days or longer under the conditions of 37° C., 5% CO2/95% air. In addition, an immunosuppressive agent tacrolimus (FK506: Fujisawa Pharmaceutical Co., Ltd., 1 nM/well) was added as a positive control. Further, 10 μL bromo deoxyuridine (BrdU) was added 15 hours before the end of culture. Then the proliferation potential of the cells treated with the immunosuppressive agent was measured using BrdU labeling & detection kit III (Roche Diagnostics K.K.) using the amount of BrdU incorporated into cellular DNA as an indicator. The proliferation potential was used as an indicator for a level of immunosuppression."}, "[3]": {"system": "T cells from a Balb/c mouse (mitochondria ATP synthase knocked down or not)", "assay": "MLR test with T cells with or without mitochondria ATP synthase knock-down by siRNA", "type": "cell-based", "procedure": "First, T cells from a Balb/c mouse having mitochondria ATP synthase knocked down were obtained using Accell siRNA kit from Thermo Fisher Scientific Inc.\nNext, according to the method in Test Example 2, MLR tests were performed using Example 1 (SSV mAb) as a test substance using the T cells obtained.\nIn the test, Isotype IgG1 (eBioscience) was used as a control reagent. In addition, a similar test was performed using T cells from a mouse not having the ATP synthase knocked down as a control test."}, "[4]": {"system": "CD3 positive T cells", "assay": "Reactivity of the monoclonal antibody with T cells by flow cytometry (FACS)", "type": "cell-based, C57BL/6 mouse", "conditions": "unstimulated T cells, 10 μl of 100 μg/ml primary antibody, student t-test, FIG. 5", "procedure": "Using the following approach, spleen was removed from a C57BL/6 mouse (5 weeks old, female, CHARLES RIVER LABORATORIES JAPAN, INC.) to prepare whole splenic cells.\nFirst, in a 5 ml culture dish (BD Bioscience FALCON 351007) into which 5 ml RPMI 1640 culture medium (Sigma-Aldrich, R-8758) was transferred, spleen was disentangled well with scissors for dissection and forceps to suspend the splenic cells, which were then transferred to a 15 ml centrifuge tube (BD Bioscience FALCON 352096). Then, the 5 ml dish was washed several times with phosphate-buffered saline (PBS, Invitrogen, 20012-027), and these were also added to the foregoing cell suspension and allowed to stand, and then the supernatant was collected in another 15 ml centrifuge tube. In addition, 5 ml RPMI 1640 culture medium was also added to the residual insoluble spleen tissue again and allowed to stand, and then only the supernatant was collected, which was combined with the above-mentioned cell suspension to perform centrifugation at 1,500 rpm for 5 min. To the collected cells, added was 2 ml lysis buffer (150 mM NH4Cl/15 mM NaHCO3/0.1 mM EDTA-Na2, pH 7.3) and hemolyzed by tapping, and then 10 ml PBS was added. After washed 3 times by centrifugation at 1,500 rpm for 5 min, whole splenic cells were obtained. […]\nThe reactivity of the above unstimulated with 16G9 mAb or SSV mAb was analyzed by flow cytometry (FACS). […]"}}}
{"molecule": "SSVmAb: IgG1 monoclonal antibody produced by Mouse-Mouse hybridoma SSV-C 93-3 (NITE BP-972), raised against … peptide-KLH conjugate (antibody, V domains shown, IgG1 monoclonal antibody produced by Mouse-Mouse hybridoma SSV-C 93-3 (NITE BP-972), raised against … peptide-KLH conjugate) VH: EIQLQQSGAELVKPGASVKISCKASGYSFTGYNMNWVKQSHGKSLEWIGNINPYYGSTSYNQKFKGKATLTVDKSSSTAYMQLNSLTSEDSAVYYCARSPYYSNYWRYFDYWGQGTTLTVSS VL: QIVLSQSPAILSASPGEKVTMTCRASSSVSYMHWYQQKPGSSPKPWIYATSNLASGVPARFSGSGSGTSYSLTISRVEAEDAATYYCQQWSSNPWTFGGGTKLEIK", "values": [{"measurement": "affinity for histone H2A, H2B, H3 or H4 compared with affinity for histone H1 (absorbance at 405 nm)", "setting": "[1]", "result": "higher than the affinity for histone H1"}, {"measurement": "absorbance which indicates the amount of incorporated BrdU", "setting": "[2]; 4 μg/mL/well, mean±S.E., cultured 3.5 days or longer, FIG. 4", "result": "0.552±0.114"}, {"measurement": "absorbance (incorporated BrdU) compared with reference antibody and tacrolimus", "setting": "[2]; SSVmAb 4 μg/mL/well, 16G9 mAb 0.1, 2, 4 or 6 μg/mL/well, FK506 1 nM/well", "result": "lower than that of Reference Example 1 (16G9 mAb) and tacrolimus (FK506)"}, {"measurement": "mean absorbance of Example 1 relative to that of Reference Example 1", "setting": "[2]; same amount added (4 μg/mL/well)", "result": "about 41%"}, {"measurement": "cell growth inhibition compared with Isotype IgG1", "setting": "[3]; ATP synthase knocked down, FIG. 6B", "result": "no significant difference"}, {"measurement": "cell growth inhibition compared with Isotype IgG1", "setting": "[3]; ATP synthase not knocked down, FIG. 6A", "result": "significantly inhibited cell growth"}, {"measurement": "reactivity with CD3 positive T cells", "setting": "[4]", "result": "comparative reactivity"}]}
